# Test results: patent US20230002480A1
# B1: N49P22 (antibody, V domains shown)
# V domain 1: HIQLLQSGPQVKKSGDTVRISCETSGYNFVDSRIHWVRQTPEKRLRWMGWINPLQGGVNYAPEFQGRIRMTRDTFIDTVYVDLSGLTPADTAYYYCARGIDGKSYPFHFWGHGTRVTVFS
# V domain 2: RFALTQPASVSGSPGQTITITCAGGSVSWFHFPPGKTPRLIIYESSKRPSGVSPRFSGSQSGSTASLIISGLQSDDEGTYFCSILEFFGRGTLVTVLS
# Legend:
# Assay in all cases: cell-based or functional assay
# [1] = target: HIV-1 Env of pseudovirus 6540.v4.c1 (HIV-1)
# [2] = target: HIV-1 Env of pseudovirus T255-34 (HIV-1)
# [3] = target: HIV-1 Env of pseudovirus CNE5 (HIV-1)
# [4] = target: HIV-1 Env of pseudovirus 3415.v1.c1 (HIV-1)
# [5] = target: HIV-1 Env of pseudovirus Ce703010054_2A2 (HIV-1)
# [6] = target: HIV-1 Env of pseudovirus BJOX025000.01.1 (HIV-1)
# [7] = target: HIV-1 Env of pseudovirus WITO4160.33 (HIV-1)
# [8] = target: HIV-1 Env of pseudovirus 620345.c01 (HIV-1)
# [9] = target: HIV-1 Env of pseudovirus CAP210.2.00.E8 (HIV-1)
# [10] = target: HIV-1 Env of pseudovirus CNE17 (HIV-1)
# [11] = target: HIV-1 Env of pseudovirus TRO.11 (HIV-1)
# [12] = target: HIV-1 Env of pseudovirus BJOX010000.06.2 (HIV-1)
# [13] = target: HIV-1 Env of pseudovirus 1394C9G1(Rev-) (HIV-1)
# [14] = target: HIV-1 Env of pseudovirus X1193_c1 (HIV-1)
# [15] = target: HIV-1 Env of pseudovirus X2088_c9 (HIV-1)
# [16] = target: HIV-1 Env of pseudovirus 6952.v1.c20 (HIV-1)
# [17] = target: HIV-1 Env of pseudovirus C1080.c03 (HIV-1)
# [18] = target: HIV-1 Env of pseudovirus 62357_14_D3_4589 (HIV-1)
# [19] = target: HIV-1 Env of pseudovirus Q461.e2 (HIV-1)
# [20] = target: HIV-1 Env of pseudovirus 3016.v5.c45 (HIV-1)
# [21] = target: HIV-1 Env of pseudovirus 1056_10_TA11_1826 (HIV-1)
# [22] = target: HIV-1 Env of pseudovirus PVO.4 (HIV-1)
# [23] = target: HIV-1 Env of pseudovirus SC05_8C11_2344 (HIV-1)
# [24] = target: HIV-1 Env of pseudovirus C3347.c11 (HIV-1)
# [25] = target: HIV-1 Env of pseudovirus T251-18 (HIV-1)
# [26] = target: HIV-1 Env of pseudovirus CAP45.2.00.G3 (HIV-1)
# [27] = target: HIV-1 Env of pseudovirus 191084 B7-19 (HIV-1)
# [28] = target: HIV-1 Env of pseudovirus P1981_C5_3 (HIV-1)
# [29] = target: HIV-1 Env of pseudovirus 3301.v1.c24 (HIV-1)
# [30] = target: HIV-1 Env of pseudovirus 249M B10 (HIV-1)
# [31] = target: HIV-1 Env of pseudovirus ZM249M.PL1 (HIV-1)
# [32] = target: HIV-1 Env of pseudovirus Q259.d2.17 (HIV-1)
binder,measurement,setting,value
B1,IC50,[1],> 50 µg/mL
same,IC80,[1],> 50 µg/mL
same,MPI,[1],29
same,IC50,[2],38.8 µg/mL
same,IC80,[2],> 50 µg/mL
same,MPI,[2],55
same,IC50,[3],0.281 µg/mL
same,IC80,[3],1.55 µg/mL
same,MPI,[3],96
same,IC50,[4],0.198 µg/mL
same,IC80,[4],1.41 µg/mL
same,MPI,[4],96
same,IC50,[5],> 50 µg/mL
same,IC80,[5],> 50 µg/mL
same,MPI,[5],0
same,IC50,[6],> 50 µg/mL
same,IC80,[6],> 50 µg/mL
same,MPI,[6],0
same,IC50,[7],4.86 µg/mL
same,IC80,[7],> 50 µg/mL
same,MPI,[7],74
same,IC50,[8],> 50 µg/mL
same,IC80,[8],> 50 µg/mL
same,MPI,[8],0
same,IC50,[9],> 50 µg/mL
same,IC80,[9],> 50 µg/mL
same,MPI,[9],6
same,IC50,[10],46.3 µg/mL
same,IC80,[10],> 50 µg/mL
same,MPI,[10],53
same,IC50,[11],0.283 µg/mL
same,IC80,[11],1.36 µg/mL
same,MPI,[11],99
same,IC50,[12],> 50 µg/mL
same,IC80,[12],> 50 µg/mL
same,MPI,[12],0
same,IC50,[13],> 50 µg/mL
same,IC80,[13],> 50 µg/mL
same,MPI,[13],35
same,IC50,[14],3.49 µg/mL
same,IC80,[14],28.5 µg/mL
same,MPI,[14],85
same,IC50,[15],> 50 µg/mL
same,IC80,[15],> 50 µg/mL
same,MPI,[15],8
same,IC50,[16],33.2 µg/mL
same,IC80,[16],> 50 µg/mL
same,MPI,[16],56
same,IC50,[17],15.9 µg/mL
same,IC80,[17],> 50 µg/mL
same,MPI,[17],64
same,IC50,[18],> 50 µg/mL
same,IC80,[18],> 50 µg/mL
same,MPI,[18],13
same,IC50,[19],11.2 µg/mL
same,IC80,[19],> 50 µg/mL
same,MPI,[19],66
same,IC50,[20],> 50 µg/mL
same,IC80,[20],> 50 µg/mL
same,MPI,[20],23
same,IC50,[21],2.99 µg/mL
same,IC80,[21],> 50 µg/mL
same,MPI,[21],69
same,IC50,[22],0.433 µg/mL
same,IC80,[22],1.49 µg/mL
same,MPI,[22],100
same,IC50,[23],0.251 µg/mL
same,IC80,[23],2.16 µg/mL
same,MPI,[23],97
same,IC50,[24],1.18 µg/mL
same,IC80,[24],12.3 µg/mL
same,MPI,[24],89
same,IC50,[25],0.58 µg/mL
same,IC80,[25],3.09 µg/mL
same,MPI,[25],99
same,IC50,[26],> 50 µg/mL
same,IC80,[26],> 50 µg/mL
same,MPI,[26],0
same,IC50,[27],0.343 µg/mL
same,IC80,[27],1.64 µg/mL
same,MPI,[27],98
same,IC50,[28],> 50 µg/mL
same,IC80,[28],> 50 µg/mL
same,MPI,[28],48
same,IC50,[29],2.82 µg/mL
same,IC80,[29],48.8 µg/mL
same,MPI,[29],80
same,IC50,[30],> 50 µg/mL
same,IC80,[30],> 50 µg/mL
same,MPI,[30],4
same,IC50,[31],> 50 µg/mL
same,IC80,[31],> 50 µg/mL
same,MPI,[31],0
same,IC50,[32],> 50 µg/mL
same,IC80,[32],> 50 µg/mL
same,MPI,[32],15
